The source of these data is article PMC11101554, “Pyruvate kinase 2 from Synechocystis sp. PCC 6803 increased substrate affinity via glucose-6-phosphate and ribose-5-phosphate for phosphoenolpyruvate consumption” (Plant Molecular Biology, 2024).

One may read the IC50 as the concentration at which inhibition is half-maximal. A lower IC50 goes with inhibition by little substance. Usually Km stands for the concentration of substrate that gives half-maximal velocity. Usually kcat stands for the maximal rate divided by the concentration of active sites. What is called kcat/Km is the turnover number divided by the Michaelis constant.

The target in data set [1] is T1, SyPyk2 (Synechocystis pyruvate kinase 2) (Synechocystis sp. PCC 6803, UniProt P73534).
T1 construct: gene pyk2; synthesized gene in pGEX6P-1 (BamHI-XhoI), GST fusion from E. coli BL21, GST tag cut by PreScission protease; untagged 63 kDa
T1 sequence (P73534 1-591): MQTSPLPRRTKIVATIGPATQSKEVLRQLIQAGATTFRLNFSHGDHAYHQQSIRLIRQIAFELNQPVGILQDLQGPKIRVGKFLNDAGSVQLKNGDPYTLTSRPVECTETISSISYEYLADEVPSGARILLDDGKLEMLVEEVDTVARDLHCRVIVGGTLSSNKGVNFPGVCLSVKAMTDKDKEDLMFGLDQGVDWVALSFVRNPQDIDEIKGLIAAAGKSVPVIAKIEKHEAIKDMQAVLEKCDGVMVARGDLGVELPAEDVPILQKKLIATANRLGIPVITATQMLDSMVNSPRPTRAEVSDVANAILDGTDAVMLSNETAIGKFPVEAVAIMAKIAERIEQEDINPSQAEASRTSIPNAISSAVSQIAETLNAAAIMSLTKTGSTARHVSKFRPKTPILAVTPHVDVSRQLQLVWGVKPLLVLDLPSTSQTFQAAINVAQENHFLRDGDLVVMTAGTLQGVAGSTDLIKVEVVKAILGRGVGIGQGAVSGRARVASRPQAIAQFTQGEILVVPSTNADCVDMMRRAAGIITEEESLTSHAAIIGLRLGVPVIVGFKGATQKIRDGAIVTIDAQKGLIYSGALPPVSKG
The data set is described as follows: LDH-coupled assay, NADH oxidation at […] nm. The data set is classed as biochemical.

Data set [2] addresses T1, SyPyk2 (Synechocystis pyruvate kinase 2). The data set is described as follows: LDH-coupled assay, NADH oxidation at […] nm. The class given is biochemical. The settings on record: read-out: % activity at 1 mM.
Substrate in data set [3]: Nc1ncnc2c1ncn2[C@@H]1O[C@H](COP(=O)(O)OP(=O)(O)O)[C@@H](O)[C@H]1O
The data set is described as follows: purified protein. The class given is biochemical, Synechocystis sp. PCC 6803. The note with it: 55 °C, pH 7.0 MES-NaOH, 5 mM PEP, 15 mM MgCl2, 100 mM KCl, hyperbolic.

Substrate in data set [4]: C=C(OP(=O)(O)O)C(=O)O
The data set is described as follows: purified protein. The note with it: 55 °C, pH 7.0 MES-NaOH, 2 mM ADP, 15 mM MgCl2, 100 mM KCl, no effector, sigmoidal (half-saturation, cooperative). The class given is biochemical, Synechocystis sp. PCC 6803.

As for `Nc1ncnc2c1ncn2[C@@H]1O[C@H](COP(=O)(O)OP(=O)(O)OP(=O)(O)O)[C@@H](O)[C@H]1O` [ATP, adenosine triphosphate], the IC50 in data set [1] worked out at 4.1 mM.
Turning to `O=P(O)(O)OC[C@H]1OC(O)[C@H](O)[C@@H](O)[C@@H]1O` (stereo partly drawn) [G6P, glucose-6-phosphate], the activity at 1000 µM in data set [2] was about 200%.
Same read-out and setting: in the case of `O=P(O)(O)OC[C@H]1OC(O)[C@H](O)[C@@H]1O` (stereo partly drawn) [R5P, ribose-5-phosphate] it was about 150%.

B1: SyPyk2 (Synechocystis pyruvate kinase 2) (Synechocystis sp. PCC 6803 substr. Kazusa) (protein)
chain: T1 sequence (P73534 1-591)
notes: synthesized gene in pGEX6P-1 (BamHI-XhoI), GST fusion from E. coli BL21, GST tag cut by PreScission protease; untagged 63 kDa
As to B1, in data set [3], the Km is 52.7 ± 7.6 µM, the kcat was 251 ± 6 s⁻¹ and the kcat/Km stood at 4.84e+06 ± 733000 M⁻¹ s⁻¹. Moreover, in data set [4], the Km turned out to be 1530 ± 70 µM, the kcat was determined as 253 ± 11 s⁻¹ and the kcat/Km came out at 166000 ± 3000 M⁻¹ s⁻¹.
